Data as given in article PMC7269092.

Target: NLuc-NS2B-E66stop (DENV2)
Assay: split reporter

MBP-NS3 (from UniProt P29990 1476-2093) (enzyme)
IC50: 2500 nM
